# Measured values from paper PMC7937890.
# Tested on: T1, RsmE-His6 (Pseudomonas putida KT2440), ORF:50140dbc
# T1 sequence: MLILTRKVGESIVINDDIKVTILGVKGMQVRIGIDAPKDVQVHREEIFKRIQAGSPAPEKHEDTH
# Experiment: EMSA
# Settings: 1x binding buffer (composition only cited), RNA 5 or 10 nM, 30 min at 30 C, with or without 100-fold unlabeled competitor RNA; 6% non-denaturing PAGE in TBE at …
sequence,measurement,value
GGGUUCUAAGAUUGGAUCCACUGUUAAUCUUUACCACAUGGACGUUGCGCAGGAAGCGCAAAGGACAGAUCAAGGACGACGACGAAGGACCACCUGCCAGGAUGGCGGGGCGAUACGGAUGUCACAGGGAAACAGUCUGGAAAACCCCGCUUCGGCGGGGGGGGGUUUUUUUUGCGGCCGCUUUU [rsmY full-length RNA],binding,binds
